Measurements: the supplement of paper PMC10724198
± gives the standard deviation of the averaged measurements.

Experiments:
Experiment in all cases: protein stability index of tFT-peptide fusion (C-terminal peptide) (PSI (0-1 scale)); higher = more stable (slower turnover)
Saccharomyces cerevisiae [1] = settings: temperature: 30 C
Protocol: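 MPS profiling in S. cerevisiae of the yeast C-terminome library: the last 12 aa of each annotated ORF are fused to the C-terminus of a sfGFP-mCherry timer, after a GGGS linker. Cells are FACS-sorted into 8 mCherry/sfGFP bins and deep-sequenced. PSI runs from 0 (unstable) to 1 (stable); wild type and das1Δ backgrounds, two technical replicates each.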

Saccharomyces cerevisiae [2] = settings: genetic background: wild type; temperature: 30 C
Saccharomyces cerevisiae [3] = system: Saccharomyces cerevisiae
Protocol: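 MPS profiling in S. cerevisiae of the tFT-X12 degron library: putative degron peptides plus stable controls, 12 aa, fused to the C-terminus of a sfGFP-mCherry timer. Cells are FACS-sorted into 8 mCherry/sfGFP bins and deep-sequenced. PSI runs from 0 (unstable) to 1 (stable). Backgrounds are wild type, das1Δ and doa10Δ at 30 °C, and wild type, das1Δ, cdc34-1 and cdc53-1 at 37 °C; 2-3 technical replicates each.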

[4] = genetic background: das1 deletion
[5] = genetic background: cdc34-1, temperature: 37 C
[6] = genetic background: cdc53-1, temperature: 37 C
[7] = genetic background: das1 deletion, temperature: 30 C
[8] = genetic background: das1 deletion, temperature: 37 C
[9] = genetic background: doa10 deletion, temperature: 30 C
[10] = genetic background: wild type, temperature: 30 C
[11] = genetic background: wild type, temperature: 37 C

Sequence | protein stability index (Saccharomyces cerevisiae [1]; [4]) | protein stability index (Saccharomyces cerevisiae [1]; genetic background: wild type) | protein stability index (Saccharomyces cerevisiae [2]) | protein stability index (Saccharomyces cerevisiae [3]; [5]) | protein stability index (Saccharomyces cerevisiae [3]; [6]) | protein stability index (Saccharomyces cerevisiae [3]; [7]) | protein stability index (Saccharomyces cerevisiae [3]; [8]) | protein stability index (Saccharomyces cerevisiae [3]; [9]) | protein stability index (Saccharomyces cerevisiae [3]; [10]) | protein stability index (Saccharomyces cerevisiae [3]; [11])
AAANILFSDHAD [RAD23 C-terminal 12 aa] | 0.739 ± 0.032 | 0.733 ± 0.032 |  |  |  |  |  |  |  | 
AAGVGSVHGINR [COY1 C-terminal 12 aa] | 0.7 ± 0.03 | 0.6645 ± 0.0066 |  |  |  |  |  |  |  | 
AAISFKEAPRSD [ANB1 C-terminal 12 aa] | 0.723 ± 0.037 | 0.694 ± 0.036 |  |  |  |  |  |  |  | 
AARPCLEGSVAP [YOR050C C-terminal 12 aa] | 0.686 ± 0.01 | 0.6795 ± 0.0067 |  |  |  |  |  |  |  | 
ADETVDFYVYDE [SWD2 C-terminal 12 aa] | 0.744 ± 0.027 | 0.698 ± 0.06 |  |  |  |  |  |  |  | 
AEFLGSFDELVL [EEB1 C-terminal 12 aa] | 0.72333 ± 5e-06 | 0.719 ± 0.018 |  |  |  |  |  |  |  | 
AEIISVRQVDQS [GIT1 C-terminal 12 aa] | 0.673 ± 0.017 | 0.705 ± 0.051 |  |  |  |  |  |  |  | 
AESDDKSDNYGA [PRP45 C-terminal 12 aa] | 0.689 ± 0.032 | 0.717 ± 0.036 |  |  |  |  |  |  |  | 
AETLLSQRSRDR [DNF2 C-terminal 12 aa] | 0.721 ± 0.028 | 0.692 ± 0.048 |  |  |  |  |  |  |  | 
AGFGCLDSIILY [GSH2 C-terminal 12 aa] | 0.7068 ± 0.0036 | 0.732 ± 0.038 |  |  |  |  |  |  |  | 
AHRENIAFPPQF [YHR033W C-terminal 12 aa] | 0.739 ± 0.0092 | 0.744 ± 0.067 |  |  |  |  |  |  |  | 
AIDTLLKMSSSD [SRL3 C-terminal 12 aa] | 0.703 ± 0.03 | 0.674 ± 0.051 |  |  |  |  |  |  |  | 
AIFLFLVGLFMK [UBC6 C-terminal 12 aa] | 0.289 ± 0.011 | 0.297 ± 0.017 |  |  |  |  |  |  |  | 
AKAGSTPKFRTE [YNL050C C-terminal 12 aa] | 0.6897 ± 0.0035 | 0.6555 ± 0.0053 |  |  |  |  |  |  |  | 
AKDFLEKRGISK [PAM18 C-terminal 12 aa] | 0.711 ± 0.0047 | 0.705 ± 0.023 |  |  |  |  |  |  |  | 
AKFDGHAKTCHI [YBR051W C-terminal 12 aa] | 0.717 ± 0.021 | 0.70733 ± 5e-06 |  |  |  |  |  |  |  | 
AKKTNKLALTHV [SEC26 C-terminal 12 aa] | 0.7167 ± 0.0064 | 0.718 ± 0.038 |  |  |  |  |  |  |  | 
ALAFSKIPSVFL [YMR153C-A C-terminal 12 aa] | 0.722 ± 0.035 | 0.687 ± 0.0091 |  |  |  |  |  |  |  | 
ALDKYLIEIHHW [NPR3 C-terminal 12 aa] | 0.718 ± 0.041 | 0.728 ± 0.013 |  |  |  |  |  |  |  | 
ALGRKTSNGGRI [MKS1 C-terminal 12 aa] | 0.7161 ± 0.004 | 0.724 ± 0.049 |  |  |  |  |  |  |  | 
AMSARKLSAARK [PCH2 C-terminal 12 aa] | 0.677 ± 0.015 | 0.666 ± 0.025 |  |  |  |  |  |  |  | 
ANLVYMKADVFC [HTD2 C-terminal 12 aa] | 0.581 ± 0.012 | 0.61 ± 0.066 |  |  |  |  |  |  |  | 
ANTDKNNNPPGN [SNG1 C-terminal 12 aa] | 0.698 ± 0.016 | 0.751 ± 0.07 |  |  |  |  |  |  |  | 
APHVLNDLLLKF [PGA1 C-terminal 12 aa] | 0.7108 ± 0.0037 | 0.666 ± 0.017 |  |  |  |  |  |  |  | 
APRKEILACSDL [YOR392W C-terminal 12 aa] | 0.718 ± 0.029 | 0.665 ± 0.04 |  |  |  |  |  |  |  | 
AQAEVIRGLQSL [CAP2 C-terminal 12 aa] | 0.682 ± 0.023 | 0.672 ± 0.03 |  |  |  |  |  |  |  | 

Sequence | protein stability index (Saccharomyces cerevisiae [1]; [4]) | protein stability index (Saccharomyces cerevisiae [1]; genetic background: wild type) | protein stability index (Saccharomyces cerevisiae [2]) | protein stability index (Saccharomyces cerevisiae [3]; [5]) | protein stability index (Saccharomyces cerevisiae [3]; [6]) | protein stability index (Saccharomyces cerevisiae [3]; [7]) | protein stability index (Saccharomyces cerevisiae [3]; [8]) | protein stability index (Saccharomyces cerevisiae [3]; [9]) | protein stability index (Saccharomyces cerevisiae [3]; [10]) | protein stability index (Saccharomyces cerevisiae [3]; [11])
AQFKEYLYQNDF [HAM1 C-terminal 12 aa] | 0.704 ± 0.01 | 0.697 ± 0.022 |  |  |  |  |  |  |  | 
AQGEKDAAATAN [TOM22 C-terminal 12 aa] | 0.677 ± 0.019 | 0.6591 ± 0.0032 |  |  |  |  |  |  |  | 
ARKFWTEDNNNL [STE2 C-terminal 12 aa] | 0.72 ± 0.023 | 0.691 ± 0.039 |  |  |  |  |  |  |  | 
ARLVSNEPILLD [CWC23 C-terminal 12 aa] | 0.725 ± 0.026 | 0.704 ± 0.053 |  |  |  |  |  |  |  | 
ARTALKRLIDDQ [MSA1 C-terminal 12 aa] | 0.692 ± 0.023 | 0.698 ± 0.025 |  |  |  |  |  |  |  | 
ARTKRLVQFEAR [RPC10 C-terminal 12 aa] | 0.6826 ± 0.0044 | 0.7169 ± 0.007 |  |  |  |  |  |  |  | 
ASVRIFLYPSNI [RPL33A C-terminal 12 aa] | 0.7 ± 0.013 | 0.697 ± 0.017 |  |  |  |  |  |  |  | 
ATAKEWTKKYAV [UBC5 C-terminal 12 aa] | 0.7 ± 0.018 | 0.729 ± 0.045 |  |  |  |  |  |  |  | 
ATRKALETARSA [MRPL13 C-terminal 12 aa] | 0.718 ± 0.0076 | 0.728 ± 0.036 |  |  |  |  |  |  |  | 
ATSITSLGVKRA [AUR1 C-terminal 12 aa] | 0.702 ± 0.01 | 0.688 ± 0.026 |  |  |  |  |  |  |  | 
AVSVPRISSPMH [ICS3 C-terminal 12 aa] | 0.7029 ± 0.0038 | 0.73 ± 0.028 |  |  |  |  |  |  |  | 
AWDIKQTLDSLA [CHO2 C-terminal 12 aa] | 0.709 ± 0.023 | 0.697 ± 0.038 |  |  |  |  |  |  |  | 
WFALFYFLVSAF |  |  | 0.266 ± 0.011 | 0.189 ± 0.019 | 0.257 ± 0.01 | 0.205 ± 0.036 | 0.316 ± 0.0074 | 0.157 ± 0.008 | 0.187 ± 0.0045 | 0.254 ± 0.0038
WFCYFSLYVFLL |  |  | 0.214 ± 0.095 | 0.0995 ± 0.02 | 0.149 ± 0.0067 | 0.168 ± 0.027 | 0.24 ± 0.0052 | 0.133 ± 0.012 | 0.105 ± 0.019 | 0.153 ± 0.026
WFFRCLFLLSLF |  |  | 0.202 ± 0.034 | 0.457 ± 0.0083 | 0.544 ± 0.028 | 0.517 ± 0.019 | 0.601 ± 0.011 | 0.188 ± 0.015 | 0.178 ± 0.026 | 0.23 ± 0.025
WFIFTITSVAGL |  |  | 0.0312 ± 0.023 | 0.0307 ± 0.009 | 0.0301 ± 0.0014 | 0.0273 ± 0.0031 | 0.0442 ± 0.015 | 0.0226 ± 0.0015 | 0.0205 ± 0.0016 | 0.0325 ± 0.011
WFLRLVGAVFAL |  |  | 0.447 ± 0.027 | 0.539 ± 0.012 | 0.624 ± 0.039 | 0.528 ± 0.016 | 0.621 ± 0.018 | 0.46 ± 0.0085 | 0.485 ± 0.025 | 0.551 ± 0.032
WFVLYAEVMGFW |  |  | 0.349 ± 0.0052 | 0.205 ± 0.041 | 0.325 ± 0.043 | 0.241 ± 0.037 | 0.491 ± 0.09 | 0.207 ± 0.029 | 0.231 ± 0.042 | 0.409 ± 0.024
WGRAADRRRRLG |  |  | 0.346 ± 0.025 | 0.633 ± 0.054 | 0.731 ± 0.039 | 0.628 ± 0.011 | 0.7658 ± 0.0054 | 0.152 ± 0.0034 | 0.207 ± 0.013 | 0.344 ± 0.018
WGRENLTRVKLE |  |  | 0.372 ± 0.061 | 0.70486 ± 0.00049 | 0.769 ± 0.0032 | 0.618 ± 0.049 | 0.725 ± 0.0082 | 0.207 ± 0.015 | 0.2 ± 0.017 | 0.424 ± 0.035
WILIGVRFSCFG |  |  | 0.299 ± 0.0058 | 0.109 ± 0.0085 | 0.233 ± 0.069 | 0.189 ± 0.034 | 0.339 ± 0.015 | 0.159 ± 0.013 | 0.165 ± 0.021 | 0.276 ± 0.018
WISDRCPSVLCY |  |  | 0.251 ± 0.015 | 0.0407 ± 0.0022 | 0.0838 ± 0.0009 | 0.185 ± 0.025 | 0.206 ± 0.011 | 0.143 ± 0.011 | 0.157 ± 0.028 | 0.184 ± 0.017
WLPFFPLSLRGV |  |  | 0.497 ± 0.2 | 0.321 ± 0.012 | 0.317 ± 0.011 | 0.412 ± 0.027 | 0.5374 ± 0.0038 | 0.63 ± 0.0096 | 0.436 ± 0.048 | 0.5 ± 0.0093
WLWFVGCLAAPL |  |  | 0.541 ± 0.07 | 0.63 ± 0.032 | 0.662 ± 0.066 | 0.529 ± 0.024 | 0.6316 ± 0.001 | 0.523 ± 0.021 | 0.536 ± 0.04 | 0.5957 ± 0.0016
WQGLSGSPILVI |  |  | 0.402 ± 0.016 | 0.197 ± 0.012 | 0.248 ± 0.015 | 0.247 ± 0.037 | 0.3829 ± 0.0012 | 0.206 ± 0.0061 | 0.241 ± 0.048 | 0.334 ± 0.013
WQILVRLIDFYT |  |  | 0.436 ± 0.0055 | 0.453 ± 0.011 | 0.446 ± 0.023 | 0.345 ± 0.034 | 0.5107 ± 0.0039 | 0.311 ± 0.0072 | 0.338 ± 0.0092 | 0.4889 ± 0.00098
